Test results as given in paper PMC7367873, “Dissecting the sequence determinants for dephosphorylation by the catalytic subunits of phosphatases PP1 and PP2A” (Nature Communications, 2020).

B1: DHX30 (protein, UniProt Q7L2E3 1-1194, looked up)
ATP-dependent RNA helicase …: MFSLDSFRKDRAQHRQRQCKLPPPRLPPMCVNPTPGGTISRASRDLLKEFPQPKNLLNSVIGRALGISHAKDKLVYVHTNGPKKKKVTLHIKWPKSVEVEGYGSKKIDAERQAAAAACQLFKGWGLLGPRNELFDAAKYRVLADRFGSPADSWWRPEPTMPPTSWRQLNPESIRPGGPGGLSRSLGREEEEDEEEELEEGTIDVTDFLSMTQQDSHAPLRDSRGSSFEMTDDDSAIRALTQFPLPKNLLAKVIQIATSSSTAKNLMQFHTVGTKTKLSTLTLLWPCPMTFVAKGRRKAEAENKAAALACKKLKSLGLVDRNNEPLTHAMYNLASLRELGETQRRPCTIQVPEPILRKIETFLNHYPVESSWIAPELRLQSDDILPLGKDSGPLSDPITGKPYVPLLEAEEVRLSQSLLELWRRRGPVWQEAPQLPVDPHRDTILNAIEQHPVVVISGDTGCGKTTRIPQLLLERYVTEGRGARCNVIITQPRRISAVSVAQRVSHELGPSLRRNVGFQVRLESKPPSRGGALLFCTVGILLRKLQSNPSLEGVSHVIVDEVHERDVNTDFLLILLKGLQRLNPALRLVLMSATGDNERFSRYFGGCPVIKVPGFMYPVKEHYLEDILAKLGKHQYLHRHRHHESEDECALDLDLVTDLVLHIDARGEPGGILCFLPGWQEIKGVQQRLQEALGMHESKYLILPVHSNIPMMDQKAIFQQPPVGVRKIVLATNIAETSITINDIVHVVDSGLHKEERYDLKTKVSCLETVWVSRANVIQRRGRAGRCQSGFAYHLFPRSRLEKMVPFQVPEILRTPLENLVLQAKIHMPEKTAVEFLSKAVDSPNIKAVDEAVILLQEIGVLDQREYLTTLGQRLAHISTDPRLAKAIVLAAIFRCLHPLLVVVSCLTRDPFSSSLQNRAEVDKVKALLSHDSGSDHLAFVRAVAGWEEVLRWQDRSSRENYLEENLLYAPSLRFIHGLIKQFSENIYEAFLVGKPSDCTLASAQCNEYSEEEELVKGVLMAGLYPNLIQVRQGKVTRQGKFKPNSVTYRTKSGNILLHKSTINREATRLRSRWLTYFMAVKSNGSVFVRDSSQVHPLAVLLLTDGDVHIRDDGRRATISLSDSDLLRLEGDSRTVRLLKELRRALGRMVERSLRSELAALPPSVQEEHGQLLALLAELLRGPCGSFDVRKTADD
B2: MAP7 (protein, UniProt Q14244 2-749, looked up)
Ensconsin: AELGAGGDGHRGGDGAVRSETAPDSYKVQDKKNASSRPASAISGQNNNHSGNKPDPPPVLRVDDRQRLARERREEREKQLAAREIVWLEREERARQHYEKHLEERKKRLEEQRQKEERRRAAVEEKRRQRLEEDKERHEAVVRRTMERSQKPKQKHNRWSWGGSLHGSPSIHSADPDRRSVSTMNLSKYVDPVISKRLSSSSATLLNSPDRARRLQLSPWESSVVNRLLTPTHSFLARSKSTAALSGEAASCSPIIMPYKAAHSRNSMDRPKLFVTPPEGSSRRRIIHGTASYKKERERENVLFLTSGTRRAVSPSNPKARQPARSRLWLPSKSLPHLPGTPRPTSSLPPGSVKAAPAQVRPPSPGNIRPVKREVKVEPEKKDPEKEPQKVANEPSLKGRAPLVKVEEATVEERTPAEPEVGPAAPAMAPAPASAPAPASAPAPAPVPTPAMVSAPSSTVNASASVKTSAGTTDPEEATRLLAEKRRLAREQREKEERERREQEELERQKREELAQRVAEERTTRREEESRRLEAEQAREKEEQLQRQAEERALREREEAERAQRQKEEEARVREEAERVRQEREKHFQREEQERLERKKRLEEIMKRTRRTEATDKKTSDQRNGDIAKGALTGGTEVSALPCTTNAPGNGKPVGSPHVVTSHQSKVTVESTPDLEKQPNENGVSVQNENFEEIINLPIGSKPSRLDVTNSESPEIPLNPILAFDDEGTLGPLPQVDGVQTQQTAEVI
B3: CAPRIN1 (protein, UniProt Q14444 2-709, looked up)
Caprin-1: PSATSHSGSGSKSSGPPPPSGSSGSEAAAGAGAAAPASQHPATGTGAVQTEAMKQILGVIDKKLRNLEKKKGKLDDYQERMNKGERLNQDQLDAVSKYQEVTNNLEFAKELQRSFMALSQDIQKTIKKTARREQLMREEAEQKRLKTVLELQYVLDKLGDDEVRTDLKQGLNGVPILSEEELSLLDEFYKLVDPERDMSLRLNEQYEHASIHLWDLLEGKEKPVCGTTYKVLKEIVERVFQSNYFDSTHNHQNGLCEEEEAASAPAVEDQVPEAEPEPAEEYTEQSEVESTEYVNRQFMAETQFTSGEKEQVDEWTVETVEVVNSLQQQPQAASPSVPEPHSLTPVAQADPLVRRQRVQDLMAQMQGPYNFIQDSMLDFENQTLDPAIVSAQPMNPTQNMDMPQLVCPPVHSESRLAQPNQVPVQPEATQVPLVSSTSEGYTASQPLYQPSHATEQRPQKEPIDQIQATISLNTDQTTASSSLPAASQPQVFQAGTSKPLHSSGINVNAAPFQSMQTVFNMNAPVPPVNEPETLKQQNQYQASYNQSFSSQPHQVEQTELQQEQLQTVVGTYHGSPDQSHQVTGNHQQPPQQNTGFPRSNQPYYNSRGVSRGGSRGARGLMNGYRGPANGFRGGYDGYRPSFSNTPNSGYTQSQFSAPRDYSGYQRDGYQQNFKRGSGQSGPRGAPRGRGGPPRPNRGMPQMNTQQVN
B4: P4HA1 (protein, UniProt P13674 18-534, looked up)
Prolyl 4-hydroxylase subunit …: HPGFFTSIGQMTDLIHTEKDLVTSLKDYIKAEEDKLEQIKKWAEKLDRLTSTATKDPEGFVGHPVNAFKLMKRLNTEWSELENLVLKDMSDGFISNLTIQRQYFPNDEDQVGAAKALLRLQDTYNLDTDTISKGNLPGVKHKSFLTAEDCFELGKVAYTEADYYHTELWMEQALRQLDEGEISTIDKVSVLDYLSYAVYQQGDLDKALLLTKKLLELDPEHQRANGNLKYFEYIMAKEKDVNKSASDDQSDQKTTPKKKGVAVDYLPERQKYEMLCRGEGIKMTPRRQKKLFCRYHDGNRNPKFILAPAKQEDEWDKPRIIRFHDIISDAEIEIVKDLAKPRLRRATISNPITGDLETVHYRISKSAWLSGYENPVVSRINMRIQDLTGLDVSTAEELQVANYGVGGQYEPHFDFARKDEPDAFKELGTGNRIATWLFYMSDVSAGGATVFPEVGASVWPKKGTAVFWYNLFASGEGDYSTRHAACPVLVGNKWVSNKWLHERGQEFRRPCTLSELE
B5: STT3B (protein, UniProt Q8TCJ2 2-826, looked up)
Dolichyl-diphosphooligosacchar …: AEPSAPESKHKSSLNSSPWSGLMALGNSRHGHHGPGAQCAHKAAGGAAPPKPAPAGLSGGLSQPAGWQSLLSFTILFLAWLAGFSSRLFAVIRFESIIHEFDPWFNYRSTHHLASHGFYEFLNWFDERAWYPLGRIVGGTVYPGLMITAGLIHWILNTLNITVHIRDVCVFLAPTFSGLTSISTFLLTRELWNQGAGLLAACFIAIVPGYISRSVAGSFDNEGIAIFALQFTYYLWVKSVKTGSVFWTMCCCLSYFYMVSAWGGYVFIINLIPLHVFVLLLMQRYSKRVYIAYSTFYIVGLILSMQIPFVGFQPIRTSEHMAAAGVFALLQAYAFLQYLRDRLTKQEFQTLFFLGVSLAAGAVFLSVIYLTYTGYIAPWSGRFYSLWDTGYAKIHIPIIASVSEHQPTTWVSFFFDLHILVCTFPAGLWFCIKNINDERVFVALYAISAVYFAGVMVRLMLTLTPVVCMLSAIAFSNVFEHYLGDDMKRENPPVEDSSDEDDKRNQGNLYDKAGKVRKHATEQEKTEEGLGPNIKSIVTMLMLMLLMMFAVHCTWVTSNAYSSPSVVLASYNHDGTRNILDDFREAYFWLRQNTDEHARVMSWWDYGYQIAGMANRTTLVDNNTWNNSHIALVGKAMSSNETAAYKIMRTLDVDYVLVIFGGVIGYSGDDINKFLWMVRIAEGEHPKDIRESDYFTPQGEFRVDKAGSPTLLNCLMYKMSYYRFGEMQLDFRTPPGFDRTRNAEIGNKDIKFKHLEEAFTSEHWLVRIYKVKAPDNRETLDHKPRVTNIFPKQKYLSKKTTKRKRGYIKNKLVFKKGKKISKKTV
B6: RFC1 (protein, UniProt P35251 1-1148, looked up)
Replication factor C subunit 1: MDIRKFFGVIPSGKKLVSETVKKNEKTKSDEETLKAKKGIKEIKVNSSRKEDDFKQKQPSKKKRIIYDSDSESEETLQVKNAKKPPEKLPVSSKPGKISRQDPVTYISETDEEDDFMCKKAASKSKENGRSTNSHLGTSNMKKNEENTKTKNKPLSPIKLTPTSVLDYFGTGSVQRSNKKMVASKRKELSQNTDESGLNDEAIAKQLQLDEDAELERQLHEDEEFARTLAMLDEEPKTKKARKDTEAGETFSSVQANLSKAEKHKYPHKVKTAQVSDERKSYSPRKQSKYESSKESQQHSKSSADKIGEVSSPKASSKLAIMKRKEESSYKEIEPVASKRKENAIKLKGETKTPKKTKSSPAKKESVSPEDSEKKRTNYQAYRSYLNREGPKALGSKEIPKGAENCLEGLIFVITGVLESIERDEAKSLIERYGGKVTGNVSKKTNYLVMGRDSGQSKSDKAAALGTKIIDEDGLLNLIRTMPGKKSKYEIAVETEMKKESKLERTPQKNVQGKRKISPSKKESESKKSRPTSKRDSLAKTIKKETDVFWKSLDFKEQVAEETSGDSKARNLADDSSENKVENLLWVDKYKPTSLKTIIGQQGDQSCANKLLRWLRNWQKSSSEDKKHAAKFGKFSGKDDGSSFKAALLSGPPGVGKTTTASLVCQELGYSYVELNASDTRSKSSLKAIVAESLNNTSIKGFYSNGAASSVSTKHALIMDEVDGMAGNEDRGGIQELIGLIKHTKIPIICMCNDRNHPKIRSLVHYCFDLRFQRPRVEQIKGAMMSIAFKEGLKIPPPAMNEIILGANQDIRQVLHNLSMWCARSKALTYDQAKADSHRAKKDIKMGPFDVARKVFAAGEETAHMSLVDKSDLFFHDYSIAPLFVQENYIHVKPVAAGGDMKKHLMLLSRAADSICDGDLVDSQIRSKQNWSLLPAQAIYASVLPGELMRGYMTQFPTFPSWLGKHSSTGKHDRIVQDLALHMSLRTYSSKRTVNMDYLSLLRDALVQPLTSQGVDGVQDVVALMDTYYLMKEDFENIMEISSWGGKPSPFSKLDPKVKAAFTRAYNKEAHLTPYSLQAIKASRHSTSPSLDSEYNEELNEDDSQSDEKDQDAIETDAMIKKKTKSSKPSKPEKDKEPRKGKGKSSKK
B7: SLC43A3 (protein, UniProt Q8NBI5 1-491, looked up)
Equilibrative nucleobase …: MAGQGLPLHVATLLTGLLECLGFAGVLFGWPSLVFVFKNEDYFKDLCGPDAGPIGNATGQADCKAQDERFSLIFTLGSFMNNFMTFPTGYIFDRFKTTVARLIAIFFYTTATLIIAFTSAGSAVLLFLAMPMLTIGGILFLITNLQIGNLFGQHRSTIITLYNGAFDSSSAVFLIIKLLYEKGISLRASFIFISVCSTWHVARTFLLMPRGHIPYPLPPNYSYGLCPGNGTTKEEKETAEHENRELQSKEFLSAKEETPGAGQKQELRSFWSYAFSRRFAWHLVWLSVIQLWHYLFIGTLNSLLTNMAGGDMARVSTYTNAFAFTQFGVLCAPWNGLLMDRLKQKYQKEARKTGSSTLAVALCSTVPSLALTSLLCLGFALCASVPILPLQYLTFILQVISRSFLYGSNAAFLTLAFPSEHFGKLFGLVMALSAVVSLLQFPIFTLIKGSLQNDPFYVNVMFMLAILLTFFHPFLVYRECRTWKESPSAIA

Test system: GFP-14-3-3β and its binding proteins
Assay: GFP-14-3-3β co-IP with LC-MS/MS label-free quantification, untreated versus PP1c-treated
Set-up: species or system human
Conditions: log2 difference; pairwise comparison PP1 vs untreated, label-free quantification, 3 replicates each

Difference (log2), PP1 vs untreated | Molecule
1.371 | B1
1.312 | B2
1.323 | B3
1.3164 | B4
1.284 | B5
1.349 | B6
1.303 | B7

Test system: GFP-14-3-3β
Assay: GFP-14-3-3β co-IP with LC-MS/MS, untreated GFP-14-3-3β versus GFP control (14-3-3 interactome)
Format: binding, human
Conditions: log2 difference; pairwise comparison untreated vs GFP, label-free quantification, 3 replicates each

Molecule | Difference (log2), untreated vs GFP
B1 | 0.9044
B2 | -0.1668
B3 | -0.3406
B4 | -0.8349
B5 | -0.7683
B6 | 0.4473
B7 | -0.216
